Measured values: patent US20250282887A1 (Amgen, published 2025)

Key:
[1] = target: T1, Human MAGEB2 (Melanoma-associated antigen B2) (human, UniProt O15479 1-319); assay: IHC on FFPE UM-UC-3 cells (endogenous MAGEB2)
T1 construct: Intracellular antigen detected by IHC in FFPE material: CHO cells transfected with human MAGEB2 (mCherry vector with Myc/DDK tags, or ORF without tags)
T1 sequence: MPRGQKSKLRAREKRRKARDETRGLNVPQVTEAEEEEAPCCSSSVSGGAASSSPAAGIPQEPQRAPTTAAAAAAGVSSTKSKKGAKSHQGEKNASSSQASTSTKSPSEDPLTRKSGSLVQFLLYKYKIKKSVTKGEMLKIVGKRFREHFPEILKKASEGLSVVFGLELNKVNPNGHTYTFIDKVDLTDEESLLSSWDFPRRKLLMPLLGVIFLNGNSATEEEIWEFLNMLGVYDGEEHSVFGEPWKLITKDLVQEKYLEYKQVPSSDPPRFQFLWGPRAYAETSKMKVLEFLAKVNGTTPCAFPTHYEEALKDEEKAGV
Method: (§1) FFPE samples were sectioned at 4 μm and mounted on positive charged glass slides. After mounting, paraffin sections were air-dried at room temperature. FFPE TMA samples were received as freshly sectioned and mounted on glass slides. The fully automated IHC assay was performed on a Discovery Ultra Stainer (Ventana Medical Systems, Tucson, AZ) using Ventana Anti-Rabbit HQ (cat #760-4815), Ventana Anti-HQ HRP (cat #760-4820), and Ventana Antibody Diluent with Casein (cat #760-219) (Ventana Medical Systems, Tucson, AZ). The slides were baked on the Discovery Ultra Stainer at 60° C. for 8 minutes, de-paraffinized with Ventana Discovery wash (cat #950-510) for 3 cycles (8 minutes each) at 69° C., and underwent cell conditioning (target retrieval) at 95° C. for 16 minutes (for cell arrays) or 32 minutes (tissues or TMAs) in CC1 buffer (cat #950-500). Following this, slides were incubated with Background Sniper (cat #BS966M, Biocare Medical, Pacheco, CA) in a Ventana Option Prep kit (cat #771-751) for 28 minutes, incubated with CM inhibitor (a part of the Ventana DAB kit cat #760-159) for 12 minutes, and incubated for 1 h at RT with MAGE-B2 antibody diluted with Ventana diluent with Casein in a Ventana Prep kit (cat #770-001) (working concentration at 0.1 μg/ml for cell pellet, or 1-5 ug/ml for tissues) or with a matched concentration of isotype control Rabbit IgG1 antibody. Following this, slides were incubated with the Ventana Anti-Rabbit HQ (cat #760-4815) for 28 minutes at RT, Ventana Anti-HQ HRP (cat #760-4820) for 28 minutes at RT, and signals detected with Ventana DAB chromogen kit (cat #760-159) for 5 minutes at RT. Slides were counterstained with Ventana Hematoxylin II (cat #5266726001) for 8 minutes and Ventana Bluing reagent (cat #526676900) for 4 minutes. Slides were coverslipped and digitized using an Aperio AT2 scanner (Leica Biosystems Inc, Buffalo Grove, IL).

[2] = target: T1, Human MAGEB2 (Melanoma-associated …); assay: IHC on FFPE U266B1 cells (endogenous MAGEB2)
Method: as §1

human MAGEA9 = target: T2, human MAGEA9 (human, UniProt P43362 1-315); assay: IHC, FFPE CHO cells transfected with human MAGEA9
T2 construct: whole, on cells; FFPE cell pellets
T2 sequence (looked up): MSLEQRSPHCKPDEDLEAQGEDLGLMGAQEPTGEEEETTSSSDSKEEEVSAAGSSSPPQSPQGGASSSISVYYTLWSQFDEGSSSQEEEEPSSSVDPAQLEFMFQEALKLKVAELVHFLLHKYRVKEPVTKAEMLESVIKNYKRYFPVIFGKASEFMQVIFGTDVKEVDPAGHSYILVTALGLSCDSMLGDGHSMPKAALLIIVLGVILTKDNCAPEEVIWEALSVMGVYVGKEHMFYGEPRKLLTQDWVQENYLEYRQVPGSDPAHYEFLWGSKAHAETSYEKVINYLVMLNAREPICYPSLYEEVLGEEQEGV
Method: as §1

[3] = target: T1, Human MAGEB2 (Melanoma-associated …); assay: IHC on FFPE U20S cells (endogenous MAGEB2)
Method: as §1

| IHC Intensity [1] | IHC % Frequency [2] | IHC Intensity [2] | binding result (human MAGEA9) | IHC % Frequency [3] | IHC Intensity [3] | Binder |
| --- | --- | --- | --- | --- | --- | --- |
| 0 | 90% | 3 | no binding (tested: 0.1 µg/ml) | 70% | 2 | 1I14 (antibody, V domains shown, also called MAGE-B2 (1i14)) VH: QSVEESGGRLVTPGTPLTLTCTISGFSLSSYAMSWVRQAPGKGLEWIGSIGGGGSAVYASWAKGRFTISKTSTTVDLRITSPTTEDTAMYFCGRGFYSIDLWGPGTLVTVSS VL: DVVMTQTPASVEATVGGTVTIKCQSSQSVYDNNALAWYQQNAGQRPRLLIYGASTLASGVPSRFSASGSGTEFTLTISDLECADAATYYCQCTYYVSSYQNDFGGGTEVVVKG |
|  | 90% | 2 | no binding (tested: 0.1 µg/ml) | 60% | 2 | 1C3 (antibody, V domains shown, also called MAGE-B2 (IC3); anti-MAGEB2 antibody 1C3) VH: QSLEESGGGLVQPEGSLTLTCTAFGVTLTNYYICWVRQAPGKGLEWVGCIDNANGRTYYASWAKGRFTISKTSSTTGTLQMTSLTAADTATYFCARSLATPLWGPGTLVTVSS VL: DIVMTQTPSSVEAAVGGTVTIKCQASQNISSYLAWYQQKPGQPPKLLIYRASTLASGVPSRFKGSGSGTQFTLTISDLECADAATYYCQSYDDSRSSNFFYAFGGGTEVVVKG |
| 0 | 80% | 2 | no binding (tested: 0.1 µg/ml) | 60% | 2 | 4G17 (antibody, IgG1, V domains shown, Rabbit monoclonal IgG1; Tested as supernatant and as small batch purified antibody; also called MAGE-B2 (4G17); anti-MAGEB2 antibody 4G17) VH: QSLEESGGGLVQPEGSLTLTCTASGVTLSNYYICWVRQAPGKGLEWIGCIDNVNGRTYYASWAKGRFTISKTSSTTGTLQMTSLTAADTATYFCARSLATPLWGPGTLVTVSS VL: DIVMTQTPASVEAAVGGTVTIKCQASQNIDSYLAWYQQKPGQPPKLLIYRASTLASGVPSRFKGSGSGTEFTLTISDLECADAATYYCQSYDDSRSSSFFYGFGGGTEVVVK |
| 0 | 90% | 1 | no binding (tested: 0.1 µg/ml) | 50% | 1 | 1J15 (antibody, IgG1, V domains shown, Rabbit monoclonal IgG1; Tested as supernatant and as small batch purified antibody; also called MAGE-B2 (IJ15); anti-MAGEB2 antibody 1J15) VH: QSLEESGGGLVQPEGSLTLTCTAFGFTLNNYYICWVRQAPGKGLEWIACIDNANGRTYYASWAKGRFTISKTSSTTVTLQMTSLTAADTATYFCARSLSTPLWGPGTLVTVSS VL: DIVMTQTPASVEAAVGGTVTIKCQASQSISSYLSWYQQKPGQPPKLLIYRASTLASGVPSRFRGSGSGTQFTLTISDLECADAATYYCQSYDDSSDNNFFYGFGGGTEVVVR |
